Measured values taken from paper PMC2134809 (The Journal of Cell Biology, 1997).

Biological target: Rabbit skeletal muscle actin (rabbit, UniProt P68135 1-377)
Assay: co-sedimentation

- Kd: 2300 ± 300 nM
- stoichiometry N: 1 actin monomer per Arp2/3-binding site
B1: Arp2/3 complex (complex)
chain 1: not shown
chain 2: not shown
chain 3: MSANIENFKDSAKLTCITCHAFNRDRTLIAICPNNNEVHIYQKQGAEWVKNAVLVEHDQAVTGIDWGHKENRIVTCSQDRNAYVWSLGADGKWKPTLVLLRITRAATHVKWSPNEEKFAVATGAKCVSVCYFEEANDWWVSKHIKLHKSTVLNVAWHPNNIFLATAASDFKARIFSAFIKGVDKRPENTPFGDKLPFGEMLAEYSCGGWVHGVSWSPSGEWLSFVSHDSAISFVNISTGREAVPQRLSLSGLPYRVLAFLNPTDIIAAGYDCNPALFRLSGQTWAFVKNVDESSAAARAAPGAAQSAMNMWQKKADLGTTSNETQLETKHQNAISGLTALAPNQFSTTAVDGKLIIWTVRA
chain 4: MILLETGSRILEEVIRQRVQSDKREAVDITLADFDGVQYHIATNATQRNLVTVSISWPCISQMKQFGTDAKVQSFYGPLVTSAETGYDYTLQFDLDNLADKDSLPGKIALFKRTVVAAPLEAVFDGKPGLPPVITINYRTNEAVYLKREGNNVAVIFSINFKDKDDIVIGKVFLQELEAARKTINNAPAVTFSQRERPLELKSVQNVYEGEDQGFVTFLLFGPHTHESRRGKTIDTIHLFRNYLHYHIKCSKAFLHTRMRLRVEELLQVLNRAKIKNANKEMKTMSGRTFKRA
chain 5: MCGMGVLPIKTKYKGPAPRYTGPADQPDIIDEAISFFKANVLFRNYEVKGPADRVLIYLTLYISQAINQMVNQSKGGAQKNLFNLAIQNFAVPGDKNFALAGFVSNPANRAEADQIRQYLTQLRQETGDRLIEAVYAFGENEPSKWWMCFSKRKFLNKNL
chain 6: METPEKPERSDAEFQQSLDARQREVNNALNTGNPGRALSAALQDPPLGCKNQQIRAVVNVLTSVKDADMQKNIDALSPTDLDTLMKYIYRGLEDGENSTSLLKWHEAVTKKGGLGCIVRALAERKAL
